Measurements reported in article PMC8041777, “Protein kinase A controls the hexosamine pathway by tuning the feedback inhibition of GFAT-1” (Nature Communications, 2021).

These proteins were tested on NC(=O)CC[C@H](N)C(=O)O (assay: purified protein). Details: 6 mM Frc6P, 1 mM APAD, 50 mM KCl, 100 mM potassium phosphate pH 7.5, 37 °C.
Format: biochemical, Homo sapiens

Row | Protein | Km [µM] | kcat [s⁻¹] | kcat/Km [M⁻¹ s⁻¹]
1 | GFAT-1 (human GFAT-1 isoform 2, hGFAT1) (Homo sapiens; R306H) (protein, full length, internal His6-tag between Gly299 and Asp300 (kept), expressed in Sf21 insect cells (MultiBac), Ni-NTA and SEC purified) CGIFAYLNYHVPRTRREILETLIKGLQRLEYRGYDSAGVGFDGGNDKDWEANACKIQLIKKKGKVKALDEEVHKQQDMDLDIEFDVHLGIAHTRWATHGEPSPVNSHPQRSDKNNEFIVIHNGIITNYKDLKKFLESKGYDFESETDTETIAKLVKYMYDNRESQDTSFTTLVERVIQQLEGAFALVFKSVHFPGQAVGTRRGSPLLIGVRSEHKLSTDHIPILYRTGKDKKGSCNLSRVDSTTCLFPVEEKAVEYYFASDASAVIEHTNRVIFLEDDDVAAVVDGHLSIHRIKRTAGDHPGRAVQTLQMELQQIMKGNFSSFMQKEIFEQPESVVNTMRGRVNFDDYTVNLGGLKDHIKEIQRCRRLILIACGTSYHAGVATRQVLEELTELPVMVELASDFLDRNTPVFRDDVCFFLSQSGETADTLMGLRYCKERGALTVGITNTVGSSISRETDCGVHINAGPEIGVASTKAYTSQFVSLVMFALMMCDDRISMQERRKEIMLGLKRLPDLIKEVLSMDDEIQKLATELYHQKSVLIMGRGYHYATCLEGALKIKEITYMHSEGILAGELKHGPLALVDKLMPVIMIIMRDHTYAKCQNALQQVVARQGRPVVICDKEDTETIKNTKRTIKVPHSVDCLQGILSVIPLQLLAFHLAVLRGYDVDFPRNLAKSVTVE | 1600 ± 270 | 4.8 ± 0.26 | 3000
2 | GFAT-1 (human GFAT-1 isoform 2, hGFAT1) (Homo sapiens; S308D) (protein, full length, internal His6-tag between Gly299 and Asp300 (kept), expressed in Sf21 insect cells (MultiBac), Ni-NTA and SEC purified) CGIFAYLNYHVPRTRREILETLIKGLQRLEYRGYDSAGVGFDGGNDKDWEANACKIQLIKKKGKVKALDEEVHKQQDMDLDIEFDVHLGIAHTRWATHGEPSPVNSHPQRSDKNNEFIVIHNGIITNYKDLKKFLESKGYDFESETDTETIAKLVKYMYDNRESQDTSFTTLVERVIQQLEGAFALVFKSVHFPGQAVGTRRGSPLLIGVRSEHKLSTDHIPILYRTGKDKKGSCNLSRVDSTTCLFPVEEKAVEYYFASDASAVIEHTNRVIFLEDDDVAAVVDGRLDIHRIKRTAGDHPGRAVQTLQMELQQIMKGNFSSFMQKEIFEQPESVVNTMRGRVNFDDYTVNLGGLKDHIKEIQRCRRLILIACGTSYHAGVATRQVLEELTELPVMVELASDFLDRNTPVFRDDVCFFLSQSGETADTLMGLRYCKERGALTVGITNTVGSSISRETDCGVHINAGPEIGVASTKAYTSQFVSLVMFALMMCDDRISMQERRKEIMLGLKRLPDLIKEVLSMDDEIQKLATELYHQKSVLIMGRGYHYATCLEGALKIKEITYMHSEGILAGELKHGPLALVDKLMPVIMIIMRDHTYAKCQNALQQVVARQGRPVVICDKEDTETIKNTKRTIKVPHSVDCLQGILSVIPLQLLAFHLAVLRGYDVDFPRNLAKSVTVE | 1300 ± 230 | 1.5 ± 0.08 | 1200
3 | GFAT-1 (human GFAT-1 isoform 2, hGFAT1) (Homo sapiens; L508R) (protein, full length, internal His6-tag between Gly299 and Asp300 (kept), expressed in Sf21 insect cells (MultiBac), Ni-NTA and SEC purified) CGIFAYLNYHVPRTRREILETLIKGLQRLEYRGYDSAGVGFDGGNDKDWEANACKIQLIKKKGKVKALDEEVHKQQDMDLDIEFDVHLGIAHTRWATHGEPSPVNSHPQRSDKNNEFIVIHNGIITNYKDLKKFLESKGYDFESETDTETIAKLVKYMYDNRESQDTSFTTLVERVIQQLEGAFALVFKSVHFPGQAVGTRRGSPLLIGVRSEHKLSTDHIPILYRTGKDKKGSCNLSRVDSTTCLFPVEEKAVEYYFASDASAVIEHTNRVIFLEDDDVAAVVDGRLSIHRIKRTAGDHPGRAVQTLQMELQQIMKGNFSSFMQKEIFEQPESVVNTMRGRVNFDDYTVNLGGLKDHIKEIQRCRRLILIACGTSYHAGVATRQVLEELTELPVMVELASDFLDRNTPVFRDDVCFFLSQSGETADTLMGLRYCKERGALTVGITNTVGSSISRETDCGVHINAGPEIGVASTKAYTSQFVSLVMFARMMCDDRISMQERRKEIMLGLKRLPDLIKEVLSMDDEIQKLATELYHQKSVLIMGRGYHYATCLEGALKIKEITYMHSEGILAGELKHGPLALVDKLMPVIMIIMRDHTYAKCQNALQQVVARQGRPVVICDKEDTETIKNTKRTIKVPHSVDCLQGILSVIPLQLLAFHLAVLRGYDVDFPRNLAKSVTVE | 1000 ± 100 | 3 ± 0.08 | 3000
